Reference: article PMC6309500 (Molecular cell, 2018)

Target: FLAG-tagged PACS-2 (UniProt Q86VP3 1-889)
Assay: co-IP

Sequence of FLAG-tagged PACS-2 (Q86VP3 whole entry): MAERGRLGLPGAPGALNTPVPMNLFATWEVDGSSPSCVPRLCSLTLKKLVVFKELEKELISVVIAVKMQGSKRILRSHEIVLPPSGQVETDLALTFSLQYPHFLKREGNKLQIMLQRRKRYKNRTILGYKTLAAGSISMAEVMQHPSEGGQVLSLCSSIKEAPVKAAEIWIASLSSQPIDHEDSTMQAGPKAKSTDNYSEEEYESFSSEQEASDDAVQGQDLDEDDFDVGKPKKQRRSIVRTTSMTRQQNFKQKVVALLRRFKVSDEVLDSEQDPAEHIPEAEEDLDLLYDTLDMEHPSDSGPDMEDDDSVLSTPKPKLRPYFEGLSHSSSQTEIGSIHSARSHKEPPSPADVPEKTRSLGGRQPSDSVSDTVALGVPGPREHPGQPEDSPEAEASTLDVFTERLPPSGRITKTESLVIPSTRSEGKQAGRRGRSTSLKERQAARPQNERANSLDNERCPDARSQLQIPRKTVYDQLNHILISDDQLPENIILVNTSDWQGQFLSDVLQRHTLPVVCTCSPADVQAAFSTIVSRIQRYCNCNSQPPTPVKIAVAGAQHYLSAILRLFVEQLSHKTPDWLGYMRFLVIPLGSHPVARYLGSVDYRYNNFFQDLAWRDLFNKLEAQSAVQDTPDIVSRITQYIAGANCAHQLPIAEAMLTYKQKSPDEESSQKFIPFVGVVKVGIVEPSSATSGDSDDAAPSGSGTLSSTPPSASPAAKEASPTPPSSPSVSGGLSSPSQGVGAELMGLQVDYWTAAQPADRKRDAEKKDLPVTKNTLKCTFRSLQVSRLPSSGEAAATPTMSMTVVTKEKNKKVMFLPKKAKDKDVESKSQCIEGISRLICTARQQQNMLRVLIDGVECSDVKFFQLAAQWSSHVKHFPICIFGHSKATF

B1: V5-tagged mouse SIRT1 (enzyme, UniProt Q923E4 1-737, looked up)
chain: MADEVALALQAAGSPSAAAAMEAASQPADEPLRKRPRRDGPGLGRSPGEPSAAVAPAAAGCEAASAAAPAALWREAAGAAASAEREAPATAVAGDGDNGSGLRREPRAADDFDDDEGEEEDEAAAAAAAAAIGYRDNLLLTDGLLTNGFHSCESDDDDRTSHASSSDWTPRPRIGPYTFVQQHLMIGTDPRTILKDLLPETIPPPELDDMTLWQIVINILSEPPKRKKRKDINTIEDAVKLLQECKKIIVLTGAGVSVSCGIPDFRSRDGIYARLAVDFPDLPDPQAMFDIEYFRKDPRPFFKFAKEIYPGQFQPSLCHKFIALSDKEGKLLRNYTQNIDTLEQVAGIQRILQCHGSFATASCLICKYKVDCEAVRGDIFNQVVPRCPRCPADEPLAIMKPEIVFFGENLPEQFHRAMKYDKDEVDLLIVIGSSLKVRPVALIPSSIPHEVPQILINREPLPHLHFDVELLGDCDVIINELCHRLGGEYAKLCCNPVKLSEITEKPPRPQKELVHLSELPPTPLHISEDSSSPERTVPQDSSVIATLVDQATNNNVNDLEVSESSCVEEKPQEVQTSRNVENINVENPDFKAVGSSTADKNERTSVAETVRKCWPNRLAKEQISKRLEGNQYLFVPPNRYIFHGAEVYSDSEDDVLSSSSCGSNSDSGTCQSPSLEEPLEDESEIEEFYNGLEDDTERPECAGGSGFGADGGDQEVVNEAIATRQELTDVNYPSDKS
fold enhancement of the co-IP in the presence of DBC1: > 8 fold

B2: V5-tagged human SIRT1 (enzyme, UniProt Q96EB6 1-747, looked up)
chain: MADEAALALQPGGSPSAAGADREAASSPAGEPLRKRPRRDGPGLERSPGEPGGAAPEREVPAAARGCPGAAAAALWREAEAEAAAAGGEQEAQATAAAGEGDNGPGLQGPSREPPLADNLYDEDDDDEGEEEEEAAAAAIGYRDNLLFGDEIITNGFHSCESDEEDRASHASSSDWTPRPRIGPYTFVQQHLMIGTDPRTILKDLLPETIPPPELDDMTLWQIVINILSEPPKRKKRKDINTIEDAVKLLQECKKIIVLTGAGVSVSCGIPDFRSRDGIYARLAVDFPDLPDPQAMFDIEYFRKDPRPFFKFAKEIYPGQFQPSLCHKFIALSDKEGKLLRNYTQNIDTLEQVAGIQRIIQCHGSFATASCLICKYKVDCEAVRGDIFNQVVPRCPRCPADEPLAIMKPEIVFFGENLPEQFHRAMKYDKDEVDLLIVIGSSLKVRPVALIPSSIPHEVPQILINREPLPHLHFDVELLGDCDVIINELCHRLGGEYAKLCCNPVKLSEITEKPPRTQKELAYLSELPPTPLHVSEDSSSPERTSPPDSSVIVTLLDQAAKSNDDLDVSESKGCMEEKPQEVQTSRNVESIAEQMENPDLKNVGSSTGEKNERTSVAGTVRKCWPNRVAKEQISRRLDGNQYLFLPPNRYIFHGAEVYSDSEDDVLSSSSCGSNSDSGTCQSPSLEEPMEDESEIEEFYNGLEDEPDVPERAGGAGFGTDGDDQEAINEAISVKQEVTDMNYPSNKS
fold enhancement of the co-IP in the presence of DBC1: > 8 fold
